# Bridges are numbered along the chain shown (N, C = ends). [ ]: non-standard residue; d: D form. Phe(4-Cl) = N[C@@H](Cc1ccc(Cl)cc1)C(=O)O; 2Nal = N[C@@H](Cc1ccc2ccccc2c1)C(=O)O; NMeCha = CN[C@@H](CC1CCCCC1)C(=O)O; NMeR = CN[C@@H](CCCNC(=N)N)C(=O)O; NMeE = CN[C@@H](CCC(=O)O)C(=O)O; NMeQ = CN[C@@H](CCC(N)=O)C(=O)O; Cha = N[C@@H](CC1CCCCC1)C(=O)O; NMeD = CN[C@@H](CC(=O)O)C(=O)O; Cba = N[C@@H](CC1CCC1)C(=O)O; Tle = CC(C)(C)[C@H](N)C(=O)O; S5 = C=CCCC[C@](C)(N)C(=O)O
# T1: β-catenin (UniProt P35222 1-781, limits assumed)
# T1 construct: also called beta-catenin
# T1 sequence (looked up): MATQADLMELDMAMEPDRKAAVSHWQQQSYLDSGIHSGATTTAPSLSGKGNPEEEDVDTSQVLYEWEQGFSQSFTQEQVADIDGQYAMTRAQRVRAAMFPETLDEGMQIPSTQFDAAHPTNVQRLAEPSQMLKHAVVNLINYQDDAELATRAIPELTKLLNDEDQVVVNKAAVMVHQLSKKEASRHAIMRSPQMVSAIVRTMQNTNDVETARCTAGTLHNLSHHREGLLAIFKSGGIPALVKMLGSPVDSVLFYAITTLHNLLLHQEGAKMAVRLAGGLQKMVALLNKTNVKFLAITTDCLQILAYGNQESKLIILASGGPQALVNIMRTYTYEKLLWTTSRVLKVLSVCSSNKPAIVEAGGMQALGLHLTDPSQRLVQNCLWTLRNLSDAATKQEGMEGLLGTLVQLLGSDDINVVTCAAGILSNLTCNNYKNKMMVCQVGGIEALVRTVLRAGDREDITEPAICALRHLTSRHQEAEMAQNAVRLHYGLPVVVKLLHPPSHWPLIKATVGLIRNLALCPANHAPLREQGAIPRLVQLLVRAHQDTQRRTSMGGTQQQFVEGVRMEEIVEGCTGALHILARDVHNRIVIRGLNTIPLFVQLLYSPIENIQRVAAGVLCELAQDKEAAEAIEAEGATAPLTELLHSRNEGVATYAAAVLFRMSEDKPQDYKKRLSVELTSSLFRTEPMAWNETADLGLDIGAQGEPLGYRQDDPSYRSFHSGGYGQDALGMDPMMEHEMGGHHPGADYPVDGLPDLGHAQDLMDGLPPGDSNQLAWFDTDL
# Biological target: T1, β-catenin
# Experiment: ALPHA Screen (BCL9/β-catenin);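 also: bead proximity readout with the polypeptide linked to donor beads and β-catenin fixed on acceptor beads, their binding bringing the beads close enough to emit signal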
# Text: In this assay, a polypeptide is conjugated to a donor bead and its target protein (i.e., β-catenin) is attached to an acceptor bead. When the two beads are in proximity due to the binding of the polypeptide to the target protein, a signal is generated and the binding affinity of the polypeptide can be quantitatively calculated. The assay may be conducted in the presence or absence of an unconjugated control polypeptide.
row,Binder,IC50
1,Ac-H[NMeR]QRSLQTLR[S5]IQR[S5][Cba][2Nal]-NH2 (staple 11-15) [SEQ ID NO: 166],0.403 µM
2,Ac-HR[NMeD]RSLQTLR[S5]IQR[S5][Cba][2Nal]-NH2 (staple 11-15; SMILES CC[C@H](C)[C@@H]1NC(=O)[C@@](C)(NC(=O)[C@H](CCCNC(=N)N)NC(=O)[C@H](CC(C)C)NC(=O)[C@@H](NC(=O)[C@H](CCC(N)=O)NC(=O)[C@H](CC(C)C)NC(=O)[C@H](CO)NC(=O)[C@H](CCCNC(=N)N)NC(=O)[C@H](CC(=O)O)N(C)C(=O)[C@H](CCCNC(=N)N)NC(=O)[C@H](Cc2c[nH]cn2)NC(C)=O)[C@@H](C)O)CCCC=CCCC[C@@](C)(C(=O)N[C@@H](CC2CCC2)C(=O)N[C@@H](Cc2ccc3ccccc3c2)C(N)=O)NC(=O)[C@H](CCCNC(=N)N)NC(=O)[C@H](CCC(N)=O)NC1=O) [SEQ ID NO: 157],0.525 µM
3,Ac-HRERSLQTLR[S5]IQR[S5]L[2Nal]-NH2 (staple 11-15; not fully specified; printed as HRERSLQTLRXIQRXL(2-Nal)) [SEQ ID NO: 6],0.67 µM
4,Ac-HRERSLQTLR[S5]IQA[S5][Cba][2Nal]-NH2 (staple 11-15; not fully specified; printed as HRERSLQTLRXIQAX(CBA)(2-Nal)) [SEQ ID NO: 29],1.35 µM
5,Ac-HQERSLQTLR[S5]IQR[S5]L[2Nal]-NH2 (staple 11-15; not fully specified; printed as HQERSLQTLRXIQRXL(2-Nal)) [SEQ ID NO: 11],2.11 µM
6,Ac-HRERSLQTL[NMeR][S5]IQR[S5][Cba][2Nal]-OH (staple 11-15; not fully specified) [SEQ ID NO: 152],0.794 µM
7,Ac-HRERSLQTLR[S5]IQA[S5]L[2Nal]-NH2 (staple 11-15; not fully specified; printed as HRERSLQTLRXIQAXL(2-Nal)) [SEQ ID NO: 28],2 µM
8,Ac-HRERSLQTLR[S5]IQE[S5][Cba][2Nal]-OH (staple 11-15; SMILES CC[C@H](C)[C@@H]1NC(=O)[C@@](C)(NC(=O)[C@H](CCCNC(=N)N)NC(=O)[C@H](CC(C)C)NC(=O)[C@@H](NC(=O)[C@H](CCC(N)=O)NC(=O)[C@H](CC(C)C)NC(=O)[C@H](CO)NC(=O)[C@H](CCCNC(=N)N)NC(=O)[C@H](CCC(=O)O)NC(=O)[C@H](CCCNC(=N)N)NC(=O)[C@H](Cc2c[nH]cn2)NC(C)=O)[C@@H](C)O)CCCC=CCCC[C@@](C)(C(=O)N[C@@H](CC2CCC2)C(=O)N[C@@H](Cc2ccc3ccccc3c2)C(=O)O)NC(=O)[C@H](CCC(=O)O)NC(=O)[C@H](CCC(N)=O)NC1=O) [SEQ ID NO: 146],0.493 µM

# Other lines, results leading:
row,IC50,Binder
1,0.223 µM,Ac-HRQRS[Cha][NMeQ]TLR[S5]IQR[S5][Cha][2Nal]-NH2 (staple 11-15; also: N-MeGln at 7: D or L (both stated)) [SEQ ID NO: 185]
2,0.291 µM,Ac-HRQRTLQTLR[S5]IQR[S5][Cba][2Nal]-NH2 (staple 11-15) [SEQ ID NO: 159]
3,0.329 µM,Ac-HRQRSLQTLR[S5]IQR[S5][Tle][2Nal]-NH2 (staple 11-15; SMILES CC[C@H](C)[C@@H]1NC(=O)[C@@](C)(NC(=O)[C@H](CCCNC(=N)N)NC(=O)[C@H](CC(C)C)NC(=O)[C@@H](NC(=O)[C@H](CCC(N)=O)NC(=O)[C@H](CC(C)C)NC(=O)[C@H](CO)NC(=O)[C@H](CCCNC(=N)N)NC(=O)[C@H](CCC(N)=O)NC(=O)[C@H](CCCNC(=N)N)NC(=O)[C@H](Cc2c[nH]cn2)NC(C)=O)[C@@H](C)O)CCCC=CCCC[C@@](C)(C(=O)N[C@H](C(=O)N[C@@H](Cc2ccc3ccccc3c2)C(N)=O)C(C)(C)C)NC(=O)[C@H](CCCNC(=N)N)NC(=O)[C@H](CCC(N)=O)NC1=O) [SEQ ID NO: 192]
4,0.232 µM,Ac-HRQRS[NMeCha][NMeQ]TLR[S5]IQR[S5][Cha][2Nal]-NH2 (staple 11-15; also: N-MeGln at 7: D or L (both stated)) [SEQ ID NO: 186]
5,0.154 µM,Ac-HRERSLQTLR[S5]IQQ[S5][Cba][2Nal]-NH2 (staple 11-15; SMILES CC[C@H](C)[C@@H]1NC(=O)[C@@](C)(NC(=O)[C@H](CCCNC(=N)N)NC(=O)[C@H](CC(C)C)NC(=O)[C@@H](NC(=O)[C@H](CCC(N)=O)NC(=O)[C@H](CC(C)C)NC(=O)[C@H](CO)NC(=O)[C@H](CCCNC(=N)N)NC(=O)[C@H](CCC(=O)O)NC(=O)[C@H](CCCNC(=N)N)NC(=O)[C@H](Cc2c[nH]cn2)NC(C)=O)[C@@H](C)O)CCCC=CCCC[C@@](C)(C(=O)N[C@@H](CC2CCC2)C(=O)N[C@@H](Cc2ccc3ccccc3c2)C(N)=O)NC(=O)[C@H](CCC(N)=O)NC(=O)[C@H](CCC(N)=O)NC1=O) [SEQ ID NO: 145]
6,0.253 µM,Ac-HRQRS[Cba]QTLR[S5]IQR[S5][Cba][2Nal]-NH2 (staple 11-15; SMILES CC[C@H](C)[C@@H]1NC(=O)[C@@](C)(NC(=O)[C@H](CCCNC(=N)N)NC(=O)[C@H](CC(C)C)NC(=O)[C@@H](NC(=O)[C@H](CCC(N)=O)NC(=O)[C@H](CC2CCC2)NC(=O)[C@H](CO)NC(=O)[C@H](CCCNC(=N)N)NC(=O)[C@H](CCC(N)=O)NC(=O)[C@H](CCCNC(=N)N)NC(=O)[C@H](Cc2c[nH]cn2)NC(C)=O)[C@@H](C)O)CCCC=CCCC[C@@](C)(C(=O)N[C@@H](CC2CCC2)C(=O)N[C@@H](Cc2ccc3ccccc3c2)C(N)=O)NC(=O)[C@H](CCCNC(=N)N)NC(=O)[C@H](CCC(N)=O)NC1=O) [SEQ ID NO: 156]
7,0.457 µM,Ac-HRERSLQTLR[S5]IQR[S5][Cba][2Nal]-NH2 (staple 11-15; SMILES CC[C@H](C)[C@@H]1NC(=O)[C@@](C)(NC(=O)[C@H](CCCNC(=N)N)NC(=O)[C@H](CC(C)C)NC(=O)[C@@H](NC(=O)[C@H](CCC(N)=O)NC(=O)[C@H](CC(C)C)NC(=O)[C@H](CO)NC(=O)[C@H](CCCNC(=N)N)NC(=O)[C@H](CCC(=O)O)NC(=O)[C@H](CCCNC(=N)N)NC(=O)[C@H](Cc2c[nH]cn2)NC(C)=O)[C@@H](C)O)CCCC=CCCC[C@@](C)(C(=O)N[C@@H](CC2CCC2)C(=O)N[C@@H](Cc2ccc3ccccc3c2)C(N)=O)NC(=O)[C@H](CCCNC(=N)N)NC(=O)[C@H](CCC(N)=O)NC1=O) [SEQ ID NO: 14]
8,0.059 µM,Ac-HRQRSLQTLR[S5]IQR[S5][Phe(4-Cl)][2Nal]-NH2 (staple 11-15; SMILES CC[C@H](C)[C@@H]1NC(=O)[C@@](C)(NC(=O)[C@H](CCCNC(=N)N)NC(=O)[C@H](CC(C)C)NC(=O)[C@@H](NC(=O)[C@H](CCC(N)=O)NC(=O)[C@H](CC(C)C)NC(=O)[C@H](CO)NC(=O)[C@H](CCCNC(=N)N)NC(=O)[C@H](CCC(N)=O)NC(=O)[C@H](CCCNC(=N)N)NC(=O)[C@H](Cc2c[nH]cn2)NC(C)=O)[C@@H](C)O)CCCC=CCCC[C@@](C)(C(=O)N[C@@H](Cc2ccc(Cl)cc2)C(=O)N[C@@H](Cc2ccc3ccccc3c2)C(N)=O)NC(=O)[C@H](CCCNC(=N)N)NC(=O)[C@H](CCC(N)=O)NC1=O) [SEQ ID NO: 179]
9,0.261 µM,Ac-HR[NMeE]RSLQTLR[S5]IQR[S5][Cba][2Nal]-NH2 (staple 11-15; SMILES CC[C@H](C)[C@@H]1NC(=O)[C@@](C)(NC(=O)[C@H](CCCNC(=N)N)NC(=O)[C@H](CC(C)C)NC(=O)[C@@H](NC(=O)[C@H](CCC(N)=O)NC(=O)[C@H](CC(C)C)NC(=O)[C@H](CO)NC(=O)[C@H](CCCNC(=N)N)NC(=O)[C@H](CCC(=O)O)N(C)C(=O)[C@H](CCCNC(=N)N)NC(=O)[C@H](Cc2c[nH]cn2)NC(C)=O)[C@@H](C)O)CCCC=CCCC[C@@](C)(C(=O)N[C@@H](CC2CCC2)C(=O)N[C@@H](Cc2ccc3ccccc3c2)C(N)=O)NC(=O)[C@H](CCCNC(=N)N)NC(=O)[C@H](CCC(N)=O)NC1=O) [SEQ ID NO: 151]
10,0.398 µM,Ac-HR[NMeQ]RSLQTLR[S5]IQR[S5][Tle][2Nal]-NH2 (staple 11-15; also: N-methylglutamine 3: D or L (filing names both)) [SEQ ID NO: 194]

# — patent US20200262867A1 (WNTRX PHARMACEUTICALS, published 2020)
